Data as given in the supplement of paper PMC10065799, “High-throughput profiling of sequence recognition by tyrosine kinases and SH2 domains using bacterial peptide display” (eLife, 2023).

Each sequence was assayed against SHP2-C SH2 (assay: SH2 binding enrichment of the phosphorylated peptide, bacterial display (enrichment ratio); higher = better substrate or ligand; peptides without Tyr show the background).
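Wherever SH2 binding enrichment of the phosphorylated peptide, bacterial display is given: peptide library displayed on the E. coli surface as eCPX fusions, selected cells deep-sequenced, score is each peptide's frequency after selection divided by its frequency in the input.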
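Wherever phosphorylation enrichment, bacterial display is given: 11-residue human phosphosite peptides and single-mutation variants displayed on the E. coli surface, counted by deep sequencing, each peptide's frequency after selection divided by its frequency in the unselected input library; frequency after pTyr selection over input frequency; kinase dosed for 20-30% of maximal phosphorylation in three min.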

| Sequence | SH2 binding enrichment |
| --- | --- |
| IRKVLYANNVM [ACTA1_Y296_D294V] | 0.944 |
| LERFIYNRQEF [HLA-DPB1_Y59_E62Q_YF] | 0.783 |
| ATDLAYFLVRK [ASL_Y375_YF] | 1.84 |
| QRRLIYRCQVG [NR2E3_Y81_R76Q] | 0.412 |
| ARRMEYLASQK [FGFR2_Y616_G613R] | 0.464 |
| SDYYAYSPVRE [H6PD_Y449] | 1.48 |
| SHMVNYQPYRK [TEX37_Y25_D24N] | 0.924 |
| GEDLSYGDVPP [IRS1_Y151] | 0.732 |
| VLRRVYVDFEG [KMT2B_Y1707] | 0.884 |
| MFRAGYDTKQE [F10_Y407_C404R] | 0.872 |
| DSSIRYLQEIY [FGG_Y135] | 0.629 |
| PLDGEYFTLRI [TP53_Y327_Q331R] | 0.539 |
| HRGCLYLAIEF [TEK_Y899_Y897C_YF] | 0.316 |
| LESILYESSVV [TRPV4_Y91_T89I] | 0.732 |
| IGVGSYSVCKR [RPS6KA3_Y433] | 0.88 |
| LPKVSYMKAID [GLRA1_Y307_V308M] | 0.731 |
| PPPELYFVKVD [TERT_Y707] | 1.04 |

| Sequence | SH2 binding enrichment |
| --- | --- |
| YYSSEYHCVGG [CTSC_Y345_Y347C] | 0.576 |
| DKMEAYNINET [TEKT4_Y210_D213N] | 0.665 |
| NRLTDYFEPLL [BBS10_Y536_YF] | 0.842 |
| KENITYMKSEQ [L1TD1_Y24_R27S] | 0.629 |
| QLLIEYPPEEV [ZZZ3_Y670_K669E] | 0.679 |
| MRAIIYNSSTA [PLEKHA7_Y243_L241I] | 0.665 |
| LQRVQCDLQKA [DSP_Y1512_Y1512C] | 0.558 |
| RLLVVYPWNQR [HBB_Y36_T39N] | 1.84 |
| CLRIDYERVSQ [DSP_Y1542_R1537C] | 0.599 |
| SSSGGYGGGFG [KRT19_Y61_A60G_YF] | 0.481 |
| LVMFFYAIFGM [SCN1A_Y1684_I1683F] | 2.64 |
| KELAPYDENWF [RPS19_Y48] | 0.685 |
| ESPGLCGFLNV [BCR_Y910_Y910C] | 0.63 |
| CSRRFYQLTKL [AR_Y858] | 0.488 |
| QRRNVYFFSFL [PTEN_Y176_Y174N_YF] | 1.8 |
| LGKLIYPVGFW [NTHL1_Y177] | 1.55 |

What follows are sequences tested against Grb2 SH2 (UniProt P62993) in the same assay as above.
Chain of Grb2 SH2 (P62993 whole entry, looked up): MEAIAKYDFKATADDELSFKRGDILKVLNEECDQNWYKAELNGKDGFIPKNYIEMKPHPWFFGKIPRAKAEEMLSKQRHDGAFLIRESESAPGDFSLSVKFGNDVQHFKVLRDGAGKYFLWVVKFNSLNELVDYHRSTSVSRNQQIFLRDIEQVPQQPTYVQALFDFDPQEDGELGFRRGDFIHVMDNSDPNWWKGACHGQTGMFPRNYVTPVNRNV

| Sequence | SH2 binding enrichment |
| --- | --- |
| IRKVLYANNVM [ACTA1_Y296_D294V] | 1.44 |
| LERFIYNRQEF [HLA-DPB1_Y59_E62Q_YF] | 1.03 |
| ATDLAYFLVRK [ASL_Y375_YF] | 2.04 |
| QRRLIYRCQVG [NR2E3_Y81_R76Q] | 0.628 |
| ARRMEYLASQK [FGFR2_Y616_G613R] | 1.09 |
| SDYYAYSPVRE [H6PD_Y449] | 1.06 |
| SHMVNYQPYRK [TEX37_Y25_D24N] | 0.686 |
| GEDLSYGDVPP [IRS1_Y151] | 0.806 |
| VLRRVYVDFEG [KMT2B_Y1707] | 1.08 |
| MFRAGYDTKQE [F10_Y407_C404R] | 0.796 |
| DSSIRYLQEIY [FGG_Y135] | 0.935 |
| PLDGEYFTLRI [TP53_Y327_Q331R] | 0.767 |
| HRGCLYLAIEF [TEK_Y899_Y897C_YF] | 0.686 |
| LESILYESSVV [TRPV4_Y91_T89I] | 0.86 |
| IGVGSYSVCKR [RPS6KA3_Y433] | 0.867 |
| LPKVSYMKAID [GLRA1_Y307_V308M] | 0.995 |
| PPPELYFVKVD [TERT_Y707] | 1.18 |

| Sequence | SH2 binding enrichment |
| --- | --- |
| YYSSEYHCVGG [CTSC_Y345_Y347C] | 0.726 |
| DKMEAYNINET [TEKT4_Y210_D213N] | 0.951 |
| NRLTDYFEPLL [BBS10_Y536_YF] | 1.02 |
| KENITYMKSEQ [L1TD1_Y24_R27S] | 1.01 |
| QLLIEYPPEEV [ZZZ3_Y670_K669E] | 1.04 |
| MRAIIYNSSTA [PLEKHA7_Y243_L241I] | 0.679 |
| LQRVQCDLQKA [DSP_Y1512_Y1512C] | 0.696 |
| RLLVVYPWNQR [HBB_Y36_T39N] | 2.12 |
| CLRIDYERVSQ [DSP_Y1542_R1537C] | 0.816 |
| SSSGGYGGGFG [KRT19_Y61_A60G_YF] | 1.09 |
| LVMFFYAIFGM [SCN1A_Y1684_I1683F] | 1.58 |
| KELAPYDENWF [RPS19_Y48] | 0.957 |
| ESPGLCGFLNV [BCR_Y910_Y910C] | 0.622 |
| CSRRFYQLTKL [AR_Y858] | 0.663 |
| QRRNVYFFSFL [PTEN_Y176_Y174N_YF] | 1.13 |
| LGKLIYPVGFW [NTHL1_Y177] | 1.53 |

Each sequence was assayed against c-Src SH2 in the same assay as above.

| Sequence | SH2 binding enrichment |
| --- | --- |
| IRKVLYANNVM [ACTA1_Y296_D294V] | 0.82 |
| LERFIYNRQEF [HLA-DPB1_Y59_E62Q_YF] | 0.566 |
| ATDLAYFLVRK [ASL_Y375_YF] | 1.18 |
| QRRLIYRCQVG [NR2E3_Y81_R76Q] | 0.606 |
| ARRMEYLASQK [FGFR2_Y616_G613R] | 0.469 |
| SDYYAYSPVRE [H6PD_Y449] | 1.13 |
| SHMVNYQPYRK [TEX37_Y25_D24N] | 0.472 |
| GEDLSYGDVPP [IRS1_Y151] | 0.529 |
| VLRRVYVDFEG [KMT2B_Y1707] | 1.41 |
| MFRAGYDTKQE [F10_Y407_C404R] | 0.5 |
| DSSIRYLQEIY [FGG_Y135] | 0.526 |
| PLDGEYFTLRI [TP53_Y327_Q331R] | 0.596 |
| HRGCLYLAIEF [TEK_Y899_Y897C_YF] | 0.206 |
| LESILYESSVV [TRPV4_Y91_T89I] | 0.613 |
| IGVGSYSVCKR [RPS6KA3_Y433] | 0.938 |
| LPKVSYMKAID [GLRA1_Y307_V308M] | 0.473 |
| PPPELYFVKVD [TERT_Y707] | 0.534 |

| Sequence | SH2 binding enrichment |
| --- | --- |
| YYSSEYHCVGG [CTSC_Y345_Y347C] | 0.834 |
| DKMEAYNINET [TEKT4_Y210_D213N] | 0.444 |
| NRLTDYFEPLL [BBS10_Y536_YF] | 0.711 |
| KENITYMKSEQ [L1TD1_Y24_R27S] | 0.53 |
| QLLIEYPPEEV [ZZZ3_Y670_K669E] | 0.569 |
| MRAIIYNSSTA [PLEKHA7_Y243_L241I] | 0.456 |
| LQRVQCDLQKA [DSP_Y1512_Y1512C] | 0.543 |
| RLLVVYPWNQR [HBB_Y36_T39N] | 1.54 |
| CLRIDYERVSQ [DSP_Y1542_R1537C] | 0.567 |
| SSSGGYGGGFG [KRT19_Y61_A60G_YF] | 0.375 |
| LVMFFYAIFGM [SCN1A_Y1684_I1683F] | 1.44 |
| KELAPYDENWF [RPS19_Y48] | 0.767 |
| ESPGLCGFLNV [BCR_Y910_Y910C] | 0.377 |
| CSRRFYQLTKL [AR_Y858] | 0.406 |
| QRRNVYFFSFL [PTEN_Y176_Y174N_YF] | 0.92 |
| LGKLIYPVGFW [NTHL1_Y177] | 1.13 |

The sequences below were run against Fyn (UniProt P06241) (assay: phosphorylation enrichment, bacterial display (enrichment ratio); higher = better substrate or ligand; peptides without Tyr show the background).
Chain of Fyn (P06241 whole entry, looked up): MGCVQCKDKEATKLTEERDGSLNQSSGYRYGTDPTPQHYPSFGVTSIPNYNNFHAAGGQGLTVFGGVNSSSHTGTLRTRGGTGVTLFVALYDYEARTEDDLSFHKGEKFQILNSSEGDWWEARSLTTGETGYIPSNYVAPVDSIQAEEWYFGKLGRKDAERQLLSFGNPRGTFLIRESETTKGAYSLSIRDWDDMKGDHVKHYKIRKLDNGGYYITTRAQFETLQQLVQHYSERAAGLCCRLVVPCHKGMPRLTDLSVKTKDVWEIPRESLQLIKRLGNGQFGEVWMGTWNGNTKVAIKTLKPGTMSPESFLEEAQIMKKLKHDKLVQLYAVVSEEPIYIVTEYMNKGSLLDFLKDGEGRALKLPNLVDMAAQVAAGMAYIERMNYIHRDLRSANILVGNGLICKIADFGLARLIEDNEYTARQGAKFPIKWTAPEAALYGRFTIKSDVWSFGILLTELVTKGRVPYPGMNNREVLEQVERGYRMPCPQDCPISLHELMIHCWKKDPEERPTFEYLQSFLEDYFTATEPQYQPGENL

| Sequence | phosphorylation enrichment |
| --- | --- |
| IRKVLYANNVM [ACTA1_Y296_D294V] | 0.286 |
| LERFIYNRQEF [HLA-DPB1_Y59_E62Q_YF] | 0.551 |
| ATDLAYFLVRK [ASL_Y375_YF] | 0.725 |
| QRRLIYRCQVG [NR2E3_Y81_R76Q] | 0.764 |
| ARRMEYLASQK [FGFR2_Y616_G613R] | 0.367 |
| SDYYAYSPVRE [H6PD_Y449] | 9.64 |
| SHMVNYQPYRK [TEX37_Y25_D24N] | 0.375 |
| GEDLSYGDVPP [IRS1_Y151] | 0.639 |
| VLRRVYVDFEG [KMT2B_Y1707] | 0.472 |
| MFRAGYDTKQE [F10_Y407_C404R] | 0.395 |
| DSSIRYLQEIY [FGG_Y135] | 0.776 |
| PLDGEYFTLRI [TP53_Y327_Q331R] | 2.55 |
| HRGCLYLAIEF [TEK_Y899_Y897C_YF] | 0.26 |
| LESILYESSVV [TRPV4_Y91_T89I] | 1.22 |
| IGVGSYSVCKR [RPS6KA3_Y433] | 0.317 |
| LPKVSYMKAID [GLRA1_Y307_V308M] | 0.694 |
| PPPELYFVKVD [TERT_Y707] | 0.962 |

| Sequence | phosphorylation enrichment |
| --- | --- |
| YYSSEYHCVGG [CTSC_Y345_Y347C] | 2.49 |
| DKMEAYNINET [TEKT4_Y210_D213N] | 0.505 |
| NRLTDYFEPLL [BBS10_Y536_YF] | 0.755 |
| KENITYMKSEQ [L1TD1_Y24_R27S] | 0.358 |
| QLLIEYPPEEV [ZZZ3_Y670_K669E] | 0.618 |
| MRAIIYNSSTA [PLEKHA7_Y243_L241I] | 0.509 |
| LQRVQCDLQKA [DSP_Y1512_Y1512C] | 0.811 |
| RLLVVYPWNQR [HBB_Y36_T39N] | 0.603 |
| CLRIDYERVSQ [DSP_Y1542_R1537C] | 0.524 |
| SSSGGYGGGFG [KRT19_Y61_A60G_YF] | 0.355 |
| LVMFFYAIFGM [SCN1A_Y1684_I1683F] | 0.789 |
| KELAPYDENWF [RPS19_Y48] | 0.506 |
| ESPGLCGFLNV [BCR_Y910_Y910C] | 0.494 |
| CSRRFYQLTKL [AR_Y858] | 0.462 |
| QRRNVYFFSFL [PTEN_Y176_Y174N_YF] | 1.15 |
| LGKLIYPVGFW [NTHL1_Y177] | 0.752 |
